Assay results: the RNAGym collection of RNA variant scans (doi:10.1093/molbev/msab373)

B1: Azoarcus group I ribozyme (parent)
chain: GUGCCUUGCGCCGGGAAACCACGCAAGGGAUGGUGUCAAAUUCGGCGAAACCUAAGCGCCCGCCCGGGCGUAUGGCAACGCCGAGCCAAGCUUCGGCGCCUGCGCCGAUGAAGGUGUAGAGACUAGACGGCACCCACCUAAGGCAAACGCUAUGGUGAAGGCAUAGUCCAGGGAGUGGCGAAAGUCACACAAACCGG

Variants of: B1
Experiment: reverse-splicing fitness (ratio to wild type); higher = more active; in vitro selection; Mg2+ level not given
Summary of the method: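 An in vitro group I ribozyme library with randomized positions was T7-transcribed and gel-purified. In triplicate, 10 pmol RNA in EPPS pH 7.5 was reacted with 50 pmoles of a 30-nt RNA substrate for 1 h at 37 °C across several added MgCl2 levels (1–48 mM), then stopped with EDTA. Products were reverse transcribed from a substrate-complementary primer, PCR-amplified and sequenced (HiSeq 4000). Fitness is a variant's read proportion after selection over that before, normalised to wild type.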

Going from C82G A120U A145C C150G C169G U176G to C82G A120U A145C C150G C169G U176C, the reverse-splicing fitness rises from 0.00178 to 0.00209.

First: C82G A120C C150U
Second: C82G A120U A145C C150U C169A
The reverse-splicing fitness of the first is higher: 0.108 for the first, 0.00185 for the second.

First: C82G A120G A145C C169A U176A
Second: C82G A120G A145C C169A U176C
The reverse-splicing fitness of the first is higher: 0.0144 for the first, 0.0123 for the second.

Compared with C82G A120G A145C C169A U176G, C82G A120U A145C C150A C169G U176A is lower in reverse-splicing fitness: 0.0031 for the first, 0.0023 for the second.

Going from C82G A120U A145C C150A C169G U176C to C82G A120U A145C C150A C169G U176G, the reverse-splicing fitness falls from 0.00207 to 0.00136.

Going from C82G A120G C150A C169A U176G to C82G A120G C150A C169A U176C, the reverse-splicing fitness rises from 0.00604 to 0.0244.

Compared with C82G A120G C150A C169A U176A, C82G A120G A145C C150G C169A U176C is lower in reverse-splicing fitness: 0.0208 for the first, 0.00681 for the second.

First: C82G A120G A145C C150G C169A U176G
Second: C82G A120G A145C C150G C169A U176A
The reverse-splicing fitness of the first is lower: 0.00487 for the first, 0.00893 for the second.

Compared with C82G A120G A145U C169A, C82G A120G A145U C169U is lower in reverse-splicing fitness: 0.0302 for the first, 0.0235 for the second.

Compared with C82G A120G A145U C169G, C82G A120G A145C C150A C169U U176A is lower in reverse-splicing fitness: 0.0523 for the first, 0.0196 for the second.

Compared with C82G A120G A145C C150A C169U U176C, C82G A120G A145C C150A C169U U176G is lower in reverse-splicing fitness: 0.0106 for the first, 0.00463 for the second.

First: C82G A120G A145G C169A U176A
Second: C82G A120G A145G C169A U176C
The reverse-splicing fitness of the first is lower: 0.0185 for the first, 0.0269 for the second.

Going from C82G A120G A145G C169A U176G to C82G A120G A145U C150U C169A, the reverse-splicing fitness rises from 0.00439 to 0.0199.

First: C82G A120G A145U C150U C169G
Second: C82G A120G A145U C150U C169U
The reverse-splicing fitness of the first is higher: 0.0343 for the first, 0.0183 for the second.

First: C82G A120G A145U C150G C169A U176A
Second: C82G A120G A145U C150G C169A U176C
The reverse-splicing fitness of the first is lower: 0.0112 for the first, 0.0121 for the second.

Going from C82G A120G A145U C150G C169A U176G to C82G A120G A145G C150A C169A U176G, the reverse-splicing fitness rises from 0.00431 to 0.00618.

First: C82G A120G A145G C150A C169A U176C
Second: C82G A120G A145G C150A C169A U176A
The reverse-splicing fitness of the first is higher: 0.0228 for the first, 0.0199 for the second.

Going from C82G A120G A145C U176C to C82G A120G A145C U176A, the reverse-splicing fitness falls from 0.0158 to 0.0133.

Going from C82G A120G A145C U176G to C82G A120G A145C C169G U176A, the reverse-splicing fitness rises from 0.00484 to 0.0291.

Going from C82G A120G A145C C169G U176C to C82G A120G A145C C169G U176G, the reverse-splicing fitness falls from 0.0224 to 0.00393.

Going from C82G A120G A145C C150A C169G U176G to C82G A120G A145C C150A C169G U176A, the reverse-splicing fitness rises from 0.00456 to 0.0232.

First: C82G A120G A145C C150A C169G U176C
Second: C82G A120G A145G C150A C169U U176C
The reverse-splicing fitness of the first is lower: 0.0136 for the first, 0.0168 for the second.

First: C82G A120G A145G C150A C169U U176A
Second: C82G A120G A145G C150A C169U U176G
The reverse-splicing fitness of the first is higher: 0.021 for the first, 0.00581 for the second.

Going from C82G A120G C150U C169G U176C to C82G A120G C150U C169G U176G, the reverse-splicing fitness falls from 0.0246 to 0.00485.

First: C82G A120G C150U C169G U176A
Second: C82G A120G A145U C150A C169U
The reverse-splicing fitness of the first is higher: 0.0177 for the first, 0.00806 for the second.

Going from C82G A120G A145U C150A C169A to C82G A120G A145U C150A C169G, the reverse-splicing fitness falls from 0.00985 to 0.00926.

Going from C82G A120G A145C C150G U176A to C82G A120G A145C C150G U176C, the reverse-splicing fitness rises from 0.00713 to 0.00894.

First: C82G A120G A145C C150G U176G
Second: C82G A120G A145G C150U U176C
The reverse-splicing fitness of the first is lower: 0.00333 for the first, 0.0211 for the second.

First: C82G A120G A145G C150U U176A
Second: C82G A120G A145G C150U U176G
The reverse-splicing fitness of the first is higher: 0.0107 for the first, 0.0072 for the second.

Compared with C82G A120G A145U C150G, C82G A120G A145U C150A is higher in reverse-splicing fitness: 0.00803 for the first, 0.00866 for the second.

Compared with C82G A120G A145U C150U, C82G A120G A145U C150A C169U U176C is lower in reverse-splicing fitness: 0.0229 for the first, 0.0145 for the second.

First: C82G A120G A145U C150A C169U U176A
Second: C82G A120G A145U C150A C169U U176G
The reverse-splicing fitness of the first is higher: 0.02 for the first, 0.00418 for the second.

Compared with C82G A120G A145C C169U U176C, C82G A120G A145C C169U U176G is lower in reverse-splicing fitness: 0.0185 for the first, 0.00392 for the second.

Going from C82G A120G A145C C169U U176A to C82G A120G A145G C150U, the reverse-splicing fitness rises from 0.0207 to 0.0247.

Compared with C82G A120G A145G C150G, C82G A120G A145G C150A is higher in reverse-splicing fitness: 0.00886 for the first, 0.0107 for the second.

Compared with C82G A120G A145C C150A U176C, C82G A120G A145C C150A U176G is lower in reverse-splicing fitness: 0.00828 for the first, 0.00453 for the second.

First: C82G A120G A145C C150A U176A
Second: C82G A120U A145C C150U C169A U176A
The reverse-splicing fitness of the first is higher: 0.0102 for the first, 0.00222 for the second.

Going from C82G A120U A145C C150U C169A U176C to C82G A120G A145G C150A C169A, the reverse-splicing fitness rises from 0.00192 to 0.0126.

Compared with C82G A120G A145G C150A C169U, C82G A120G A145G C150A C169G is higher in reverse-splicing fitness: 0.011 for the first, 0.0133 for the second.

Going from C82G A120G C150G C169G to C82G A120G C150G C169A, the reverse-splicing fitness rises from 0.00959 to 0.00981.

Compared with C82G A120G C150G C169U, C82G A120C C150G C169U U176A is lower in reverse-splicing fitness: 0.00956 for the first, 0.00577 for the second.

C82G A120C C150G C169U U176C gave a reverse-splicing fitness of 0.0109.
